Reference: patent publication US20210246166A1 (Bayer, published 2021)
Numbered stars: 1 amine (or outer) side, 2 acyl side, 3 side chain; on linkers, the order of the positions; unused ones are H or OH. Bridge positions count the residues as written; N and C are the ends. Square brackets hold non-standard residues; d marks the D form. Primed or numbered codes have the meaning given here. Ends that are not written are not given here. TTDS(3) = 1,13-Diamino-4,7,10-trioxatridecan-succinamic acid; Pro(3S,4R-methano) = O=C(O)[C@H]1NC[C@@H]2C[C@@H]21; NH(CH2CH2O)4CH2CO = O=C(COCCOCCOCCOCCN[*:1])[*:2]; Oic = O=C(O)[C@@H]1C[C@@H]2CCCC[C@@H]2N1; PEG8 = NCCOCCOCCOCCOCCOCCOCCOCCOCCC(=O)O; PEG6 = NCCOCCOCCOCCOCCOCCOCCC(=O)O; tBuAla = CC(C)(C)C[C@H](N)C(=O)O; Cit = NC(=O)NCCC[C@H](N)C(=O)O; Pen = CC(C)(S)[C@H](N)C(=O)O; NMeC = CN[C@@H](CS)C(=O)O; PEG3 = NCCOCCOCCOCCC(=O)O; Orn = NCCC[C@H](N)C(=O)O; Aze = O=C(O)[C@@H]1CCN1; Nva = CCC[C@H](N)C(=O)O; PEG2 = NCCOCCOCCC(=O)O; Sar = CNCC(=O)O

T1: recombinant human MASP1 active protease (amino acids 297-699, C-terminal His Tag) (human, UniProt P48740 297-699)
T1 sequence: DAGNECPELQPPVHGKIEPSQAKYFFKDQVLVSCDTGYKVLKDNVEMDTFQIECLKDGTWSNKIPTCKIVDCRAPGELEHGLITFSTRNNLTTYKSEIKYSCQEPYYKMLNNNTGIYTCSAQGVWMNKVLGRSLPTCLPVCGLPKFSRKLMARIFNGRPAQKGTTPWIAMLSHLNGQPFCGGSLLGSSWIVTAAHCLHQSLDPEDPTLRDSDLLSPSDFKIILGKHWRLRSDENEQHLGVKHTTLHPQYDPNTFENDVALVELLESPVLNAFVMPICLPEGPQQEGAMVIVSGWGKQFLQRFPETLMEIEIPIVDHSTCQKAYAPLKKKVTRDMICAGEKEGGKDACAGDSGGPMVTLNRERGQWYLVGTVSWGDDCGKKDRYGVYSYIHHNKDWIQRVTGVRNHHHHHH


Legend:
[1] = target: T1, recombinant human MASP1 active protease …; experiment: cell-based or functional assay
[2] = target: recombinant human MASP2 active protease (amino acids 297-686, C-terminal His Tag) (human, UniProt O00187 297-686); experiment: cell-based or functional assay
Chain of recombinant human MASP2 active protease (amino acids 297-686, C-terminal His Tag) (O00187 other isoform, or with tags, fused parts or gaps limits assumed): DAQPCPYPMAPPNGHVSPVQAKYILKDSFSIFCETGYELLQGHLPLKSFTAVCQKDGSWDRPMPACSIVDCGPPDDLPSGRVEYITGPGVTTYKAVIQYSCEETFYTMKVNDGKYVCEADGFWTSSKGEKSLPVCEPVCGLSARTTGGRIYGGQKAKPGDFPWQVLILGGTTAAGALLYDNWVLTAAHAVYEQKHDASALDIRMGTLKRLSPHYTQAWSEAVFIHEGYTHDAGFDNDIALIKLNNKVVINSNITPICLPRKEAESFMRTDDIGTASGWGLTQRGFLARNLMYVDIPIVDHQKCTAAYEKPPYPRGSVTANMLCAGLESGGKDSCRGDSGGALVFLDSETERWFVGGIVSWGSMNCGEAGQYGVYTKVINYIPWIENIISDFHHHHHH

human MASP1 IC50 [1] [nM]	human MASP2 IC50 [2] [nM]	Binder
2.45	185	AICSRS[tBuAla]PPI[NMeC]IPD-OH (disulfide 3-11; N-terminus assumed; SMILES CC[C@H](C)[C@H](NC(=O)[C@H](C)N)C(=O)N[C@H]1CSSC[C@@H](C(=O)N[C@H](C(=O)N2CCC[C@H]2C(=O)N[C@@H](CC(=O)O)C(=O)O)[C@@H](C)CC)N(C)C(=O)[C@H]([C@@H](C)CC)NC(=O)[C@@H]2CCCN2C(=O)[C@@H]2CCCN2C(=O)[C@H](CC(C)(C)C)NC(=O)[C@H](CO)NC(=O)[C@H](CCCNC(=N)N)NC(=O)[C@H](CO)NC1=O) [AIC+SRS-((tBu)A)-PPI-((N-Me)C)+IPD-OH]
2.2	65	[Cit]ICSRS[tBuAla]PPI[Pen]IPD-OH (disulfide 3-11; N-terminus assumed; SMILES CC[C@H](C)[C@H](NC(=O)[C@@H](N)CCCNC(N)=O)C(=O)N[C@H]1CSSC(C)(C)[C@@H](C(=O)N[C@H](C(=O)N2CCC[C@H]2C(=O)N[C@@H](CC(=O)O)C(=O)O)[C@@H](C)CC)NC(=O)[C@H]([C@@H](C)CC)NC(=O)[C@@H]2CCCN2C(=O)[C@@H]2CCCN2C(=O)[C@H](CC(C)(C)C)NC(=O)[C@H](CO)NC(=O)[C@H](CCCNC(=N)N)NC(=O)[C@H](CO)NC1=O) [(Cit)-IC+SRS-((tBu)A)-PPI-(Pen)+IPD-OH]
2.2	63	AICSRSLP[Oic]I[Pen]IP-NH2 (disulfide 3-11; N-terminus assumed; SMILES CC[C@H](C)[C@H](NC(=O)[C@H](C)N)C(=O)N[C@H]1CSSC(C)(C)[C@@H](C(=O)N[C@H](C(=O)N2CCC[C@H]2C(N)=O)[C@@H](C)CC)NC(=O)[C@H]([C@@H](C)CC)NC(=O)[C@@H]2C[C@@H]3CCCC[C@@H]3N2C(=O)[C@@H]2CCCN2C(=O)[C@H](CC(C)C)NC(=O)[C@H](CO)NC(=O)[C@H](CCCNC(=N)N)NC(=O)[C@H](CO)NC1=O) [AIC+SRSLP-(Oic)-I-(Pen)+IP-NH2]
1.1	50	[Nva]ICSRS[tBuAla]PPI[NMeC]I-NH2 (disulfide 3-11; N-terminus assumed; SMILES CCC[C@H](N)C(=O)N[C@H](C(=O)N[C@H]1CSSC[C@@H](C(=O)N[C@H](C(N)=O)[C@@H](C)CC)N(C)C(=O)[C@H]([C@@H](C)CC)NC(=O)[C@@H]2CCCN2C(=O)[C@@H]2CCCN2C(=O)[C@H](CC(C)(C)C)NC(=O)[C@H](CO)NC(=O)[C@H](CCCNC(=N)N)NC(=O)[C@H](CO)NC1=O)[C@@H](C)CC) [(Nva)-IC+SRS-((tBu)A)-PPI-(((N-Me)C))+I-NH2]
2.4	110	KICSRS[tBuAla]PPI[NMeC]I-NH2 (disulfide 3-11; N-terminus assumed; SMILES CC[C@H](C)[C@H](NC(=O)[C@@H]1CSSC[C@H](NC(=O)[C@@H](NC(=O)[C@@H](N)CCCCN)[C@@H](C)CC)C(=O)N[C@@H](CO)C(=O)N[C@@H](CCCNC(=N)N)C(=O)N[C@@H](CO)C(=O)N[C@@H](CC(C)(C)C)C(=O)N2CCC[C@H]2C(=O)N2CCC[C@H]2C(=O)N[C@@H]([C@@H](C)CC)C(=O)N1C)C(N)=O) [KIC+SRS-((tBu)A)-PPI-((N-Me)C)+I-NH2]
2.4	68	[Aze]ICSRS[tBuAla]PPI[Pen]IPD-NH2 (disulfide 3-11) [(Azetidine-2-carboxylic acid)-IC+SRS-((tBu)A)-PPI-(Pen)+IPD-NH2]
2.5	190	AICSRS[tBuAla]P[Oic]ICIPD-NH2 (disulfide 3-11; also: HCl salt) [AIC+SRS-((tBu)A)-P-(Oic)-IC+IPD-NH2 (HCl salt)]
2.4	64	WICSRS[tBuAla]PPI[Pen]IPD-NH2 (disulfide 3-11; N-terminus assumed; SMILES CC[C@H](C)[C@H](NC(=O)[C@@H](N)Cc1c[nH]c2ccccc12)C(=O)N[C@H]1CSSC(C)(C)[C@@H](C(=O)N[C@H](C(=O)N2CCC[C@H]2C(=O)N[C@@H](CC(=O)O)C(N)=O)[C@@H](C)CC)NC(=O)[C@H]([C@@H](C)CC)NC(=O)[C@@H]2CCCN2C(=O)[C@@H]2CCCN2C(=O)[C@H](CC(C)(C)C)NC(=O)[C@H](CO)NC(=O)[C@H](CCCNC(=N)N)NC(=O)[C@H](CO)NC1=O) [WIC+SRS-((tBu)A)-PPI-(Pen)+IPD-NH2]
2.4	150	[Orn]ICSRS[tBuAla]PPI[NMeC]IPD-NH2 (disulfide 3-11; N-terminus assumed; SMILES CC[C@H](C)[C@H](NC(=O)[C@@H](N)CCCN)C(=O)N[C@H]1CSSC[C@@H](C(=O)N[C@H](C(=O)N2CCC[C@H]2C(=O)N[C@@H](CC(=O)O)C(N)=O)[C@@H](C)CC)N(C)C(=O)[C@H]([C@@H](C)CC)NC(=O)[C@@H]2CCCN2C(=O)[C@@H]2CCCN2C(=O)[C@H](CC(C)(C)C)NC(=O)[C@H](CO)NC(=O)[C@H](CCCNC(=N)N)NC(=O)[C@H](CO)NC1=O) [(Orn)-IC+SRS-((tBu)A)-PPI-((N-Me)C)+IPD-NH2]
2.4	170	[Orn]ICSRS[tBuAla]PPI[NMeC]IPD-NH2 (disulfide 3-11; also: HCl salt) [(Orn)-IC+SRS-((tBu)A)-PPI-((N-Me)C)+IPD-NH2 (HCl salt)]
2.4	110	[Sar]ICSRSLP[Oic]I[Pen]IP[PEG5‑CH2CO2H (18 atoms)]-NH2 (disulfide 3-11) [((N-Me)G)-IC+SRSLP-(Oic)-I-(Pen)+IP-(PEG5-CH2CO2H (18 atoms))-NH2]

Second part, the binder before the results:

Binder	human MASP1 IC50 [1] [nM]	human MASP2 IC50 [2] [nM]
[Sar]ICSRSL[Pro(3S,4R-methano)]PI[Pen]IPE-NH2 (disulfide 3-11; N-terminus assumed; SMILES CC[C@H](C)[C@H](NC(=O)CNC)C(=O)N[C@H]1CSSC(C)(C)[C@@H](C(=O)N[C@H](C(=O)N2CCC[C@H]2C(=O)N[C@@H](CCC(=O)O)C(N)=O)[C@@H](C)CC)NC(=O)[C@H]([C@@H](C)CC)NC(=O)[C@@H]2CCCN2C(=O)[C@@H]2[C@H]3C[C@H]3CN2C(=O)[C@H](CC(C)C)NC(=O)[C@H](CO)NC(=O)[C@H](CCCNC(=N)N)NC(=O)[C@H](CO)NC1=O) [((N-Me)G)-IC+SRSL-((1S,2S,5R)-3-azabicyclo[3.1.0]hexane-2-carboxylic acid)-PI-(Pen)+IPE-NH2]	2.5	70
[Sar]ICSRS[tBuAla]PPI[Pen]IP-{PEG8-NH2} (disulfide 3-11) [((N-Me)G)-IC+SRS-((tBu)A)-PPI-(Pen)+IP-(PEG8(28 atoms))-NH2]	2.2	52
[Sar]ICSRSLP[Oic]I[Pen]IP[PEG2]-NH2 (disulfide 3-11; N-terminus assumed; SMILES CC[C@H](C)[C@H](NC(=O)CNC)C(=O)N[C@H]1CSSC(C)(C)[C@@H](C(=O)N[C@H](C(=O)N2CCC[C@H]2C(=O)NCCOCCOCCC(N)=O)[C@@H](C)CC)NC(=O)[C@H]([C@@H](C)CC)NC(=O)[C@@H]2C[C@@H]3CCCC[C@@H]3N2C(=O)[C@@H]2CCCN2C(=O)[C@H](CC(C)C)NC(=O)[C@H](CO)NC(=O)[C@H](CCCNC(=N)N)NC(=O)[C@H](CO)NC1=O) [((N-Me)G)-IC+SRSLP-(Oic)-I-(Pen)+IP-(PEG1(10 atoms))-NH2]	2.3	87
[Sar]ICSRS[tBuAla]PPI[Pen]IP[PEG3]-NH2 (disulfide 3-11; N-terminus assumed; SMILES CC[C@H](C)[C@H](NC(=O)CNC)C(=O)N[C@H]1CSSC(C)(C)[C@@H](C(=O)N[C@H](C(=O)N2CCC[C@H]2C(=O)NCCOCCOCCOCCC(N)=O)[C@@H](C)CC)NC(=O)[C@H]([C@@H](C)CC)NC(=O)[C@@H]2CCCN2C(=O)[C@@H]2CCCN2C(=O)[C@H](CC(C)(C)C)NC(=O)[C@H](CO)NC(=O)[C@H](CCCNC(=N)N)NC(=O)[C@H](CO)NC1=O) [((N-Me)G)-IC+SRS-((tBu)A)-PPI-(Pen)+IP-(PEG2(13 atoms))-NH2]	2.2	42
[Sar]ICSRS[tBuAla]PPI[Pen]IP[PEG6]-NH2 (disulfide 3-11; N-terminus assumed; SMILES CC[C@H](C)[C@H](NC(=O)CNC)C(=O)N[C@H]1CSSC(C)(C)[C@@H](C(=O)N[C@H](C(=O)N2CCC[C@H]2C(=O)NCCOCCOCCOCCOCCOCCOCCC(N)=O)[C@@H](C)CC)NC(=O)[C@H]([C@@H](C)CC)NC(=O)[C@@H]2CCCN2C(=O)[C@@H]2CCCN2C(=O)[C@H](CC(C)(C)C)NC(=O)[C@H](CO)NC(=O)[C@H](CCCNC(=N)N)NC(=O)[C@H](CO)NC1=O) [((N-Me)G)-IC+SRS-((tBu)A)-PPI-(Pen)+IP-(PEG5(22 atoms))-NH2]	2.5	48
[Sar]ICSRS[tBuAla]PPI[Pen]IP-{TTDS(3)-NH2} (disulfide 3-11) [((N-Me)G)-IC+SRS-((tBu)A)-PPI-(Pen)+IP-(TTDS)-NH2]	2.4	58
[Sar]ICSRS[tBuAla]PPI[Pen]IP[NH(CH2CH2O)4CH2CO]-NH2 (disulfide 3-11; N-terminus assumed; SMILES CC[C@H](C)[C@H](NC(=O)CNC)C(=O)N[C@H]1CSSC(C)(C)[C@@H](C(=O)N[C@H](C(=O)N2CCC[C@H]2C(=O)NCCOCCOCCOCCOCC(N)=O)[C@@H](C)CC)NC(=O)[C@H]([C@@H](C)CC)NC(=O)[C@@H]2CCCN2C(=O)[C@@H]2CCCN2C(=O)[C@H](CC(C)(C)C)NC(=O)[C@H](CO)NC(=O)[C@H](CCCNC(=N)N)NC(=O)[C@H](CO)NC1=O) [((N-Me)G)-IC+SRS-((tBu)A)-PPI-(Pen)+IP-(PEG4-CH2CO2H (15 atoms))-NH2]	2.2	30
